In the supplement of paper PMC10724198:
± gives the standard deviation of the averaged measurements.

Assays:
Saccharomyces cerevisiae [1] = experiment: protein stability index of tFT-peptide fusion (C-terminal peptide) (PSI (0-1 scale)); higher = more stable (slower turnover)
Procedure: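 MPS profiling in S. cerevisiae of the tFT-X12 degron library: putative degron peptides plus stable controls, 12 aa, fused to the C-terminus of a sfGFP-mCherry timer. Cells are FACS-sorted into 8 mCherry/sfGFP bins and deep-sequenced. PSI runs from 0 (unstable) to 1 (stable). Backgrounds are wild type, das1Δ and doa10Δ at 30 °C, and wild type, das1Δ, cdc34-1 and cdc53-1 at 37 °C; 2-3 technical replicates each.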

Saccharomyces cerevisiae [2] = experiment: as above; settings: genetic background: wild type; temperature: 30 C
[3] = genetic background: cdc34-1, temperature: 37 C
[4] = genetic background: cdc53-1, temperature: 37 C
[5] = genetic background: das1 deletion, temperature: 30 C
[6] = genetic background: das1 deletion, temperature: 37 C
[7] = genetic background: doa10 deletion, temperature: 30 C
[8] = genetic background: wild type, temperature: 30 C
[9] = genetic background: wild type, temperature: 37 C
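Also: PSI is a weighted mean of sequencing reads over stability bins, variants kept only with over 10 reads, mCherry proximal and sfGFP distal, peptide attached via GGGS linker.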

Row | Sequence | protein stability index (Saccharomyces cerevisiae [1]; [3]) | protein stability index (Saccharomyces cerevisiae [1]; [4]) | protein stability index (Saccharomyces cerevisiae [1]; [5]) | protein stability index (Saccharomyces cerevisiae [1]; [6]) | protein stability index (Saccharomyces cerevisiae [1]; [7]) | protein stability index (Saccharomyces cerevisiae [1]; [8]) | protein stability index (Saccharomyces cerevisiae [1]; [9]) | protein stability index (Saccharomyces cerevisiae [2])
1 | GGGHGSSCSVCD | 0.67 ± 0.035 | 0.74 ± 0.034 | 0.665 ± 0.023 | 0.69544 ± 0.00064 | 0.646 ± 0.013 | 0.645 ± 0.0097 | 0.702 ± 0.019 | 0.744 ± 0.032
2 | LSRRFSLALFWT | 0.57 ± 0.016 | 0.683 ± 0.051 | 0.654 ± 0.0085 | 0.707 ± 0.026 | 0.1762 ± 0.0015 | 0.197 ± 0.031 | 0.317 ± 0.0078 | 0.279 ± 0.012
3 | LNQRGKRKYLIM | 0.711 ± 0.058 | 0.751 ± 0.054 | 0.656 ± 0.038 | 0.723 ± 0.016 | 0.372 ± 0.012 | 0.412 ± 0.024 | 0.561 ± 0.034 | 0.452 ± 0.015
4 | LFFFLFSLLIFF | 0.248 ± 0.019 | 0.25 ± 0.0039 | 0.349 ± 0.044 | 0.362 ± 0.0094 | 0.377 ± 0.014 | 0.259 ± 0.047 | 0.352 ± 0.011 | 0.301 ± 0.036
5 | VGVSCLVFFGVV | 0.644 ± 0.023 | 0.653 ± 0.0091 | 0.511 ± 0.017 | 0.6636 ± 0.0025 | 0.484 ± 0.026 | 0.509 ± 0.021 | 0.633 ± 0.0085 | 0.549 ± 0.11
6 | IRLCAASFMVVF | 0.501 ± 0.025 | 0.55 ± 0.03 | 0.414 ± 0.023 | 0.5352 ± 0.0027 | 0.3904 ± 0.0034 | 0.405 ± 0.023 | 0.524 ± 0.014 | 0.474 ± 0.017
7 | VSCYYVFLIPFW | 0.463 ± 0.011 | 0.6 ± 0.036 | 0.414 ± 0.038 | 0.57839 ± 0.00033 | 0.408 ± 0.018 | 0.409 ± 0.017 | 0.56 ± 0.0097 | 0.484 ± 0.02
8 | YLRVRRPGSALV | 0.7087 ± 0.0013 | 0.769 ± 0.028 | 0.63 ± 0.022 | 0.7643 ± 0.0014 | 0.629 ± 0.035 | 0.624 ± 0.0081 | 0.7277 ± 0.0017 | 0.654 ± 0.23
9 | WSWCLDVVCFTS | 0.498 ± 0.036 | 0.547 ± 0.027 | 0.45 ± 0.021 | 0.563 ± 0.019 | 0.446 ± 0.011 | 0.439 ± 0.011 | 0.531 ± 0.024 | 0.471 ± 0.0059
10 | LGRLDYKRMKRA | 0.7464 ± 0.0014 | 0.748 ± 0.024 | 0.641 ± 0.033 | 0.7434 ± 0.0068 | 0.477 ± 0.017 | 0.51 ± 0.021 | 0.618 ± 0.046 | 0.533 ± 0.076
11 | WGRENLTRVKLE | 0.70486 ± 0.00049 | 0.769 ± 0.0032 | 0.618 ± 0.049 | 0.725 ± 0.0082 | 0.207 ± 0.015 | 0.2 ± 0.017 | 0.424 ± 0.035 | 0.372 ± 0.061
12 | IPRSCRIRLAVL | 0.658 ± 0.03 | 0.715 ± 0.0073 | 0.562 ± 0.032 | 0.7175 ± 0.0055 | 0.254 ± 0.0096 | 0.271 ± 0.027 | 0.359 ± 0.021 | 0.359 ± 0.014
13 | LVSCGNFLVFCF | 0.299 ± 0.0056 | 0.311 ± 0.025 | 0.234 ± 0.021 | 0.387 ± 0.0079 | 0.211 ± 0.0058 | 0.234 ± 0.013 | 0.355 ± 0.0037 | 0.324 ± 0.0072
14 | PYVHPFRCYWVL | 0.589 ± 0.032 | 0.717 ± 0.027 | 0.621 ± 0.02 | 0.7396 ± 0.0015 | 0.128 ± 0.01 | 0.138 ± 0.0077 | 0.181 ± 0.016 | 0.193 ± 0.029
15 | LAPPFPVVLTPA | 0.294 ± 0.043 | 0.32381 ± 2.9e-05 | 0.263 ± 0.036 | 0.4137 ± 0.00012 | 0.219 ± 0.0087 | 0.267 ± 0.035 | 0.3816 ± 0.0013 | 0.334 ± 0.015
16 | WFIFTITSVAGL | 0.0307 ± 0.009 | 0.0301 ± 0.0014 | 0.0273 ± 0.0031 | 0.0442 ± 0.015 | 0.0226 ± 0.0015 | 0.0205 ± 0.0016 | 0.0325 ± 0.011 | 0.0312 ± 0.023
17 | WQGLSGSPILVI | 0.197 ± 0.012 | 0.248 ± 0.015 | 0.247 ± 0.037 | 0.3829 ± 0.0012 | 0.206 ± 0.0061 | 0.241 ± 0.048 | 0.334 ± 0.013 | 0.402 ± 0.016
18 | VGDIRSFALWYA | 0.699 ± 0.039 | 0.765 ± 0.014 | 0.661 ± 0.015 | 0.74 ± 0.0047 | 0.656 ± 0.038 | 0.646 ± 0.011 | 0.707 ± 0.011 | 0.745 ± 0.041
19 | AFVVPLFLCCCG | 0.1836 ± 0.0015 | 0.165 ± 0.013 | 0.212 ± 0.025 | 0.2768 ± 0.0025 | 0.184 ± 0.014 | 0.209 ± 0.014 | 0.235 ± 0.0042 | 0.255 ± 0.0048
20 | PTLPASLHSIYP | 0.654 ± 0.03 | 0.72 ± 0.031 | 0.684 ± 0.028 | 0.698 ± 0.021 | 0.687 ± 0.03 | 0.6731 ± 0.0056 | 0.6917 ± 0.0027 | 0.768 ± 0.024
21 | DVLLVVVLGRFL | 0.403 ± 0.058 | 0.563 ± 0.063 | 0.344 ± 0.03 | 0.5481 ± 0.0036 | 0.322 ± 0.043 | 0.312 ± 0.027 | 0.535 ± 0.0089 | 0.44 ± 0.066
22 | FGGFYGRRVLII | 0.62024 ± 0.00039 | 0.682 ± 0.0097 | 0.544 ± 0.023 | 0.6748 ± 0.0054 | 0.182 ± 0.0081 | 0.209 ± 0.0024 | 0.437 ± 0.0092 | 0.327 ± 0.04
23 | PFIPLLLAPALA | 0.4032 ± 0.0011 | 0.409 ± 0.0068 | 0.297 ± 0.036 | 0.458 ± 0.0089 | 0.275 ± 0.0074 | 0.307 ± 0.023 | 0.4205 ± 0.00058 | 0.441 ± 0.1
24 | PPSPPLLFHFPP | 0.669 ± 0.049 | 0.756 ± 0.013 | 0.661 ± 0.0077 | 0.7367 ± 0.005 | 0.661 ± 0.022 | 0.658 ± 0.018 | 0.7058 ± 0.007 | 0.586 ± 0.15
25 | KSTLVRILVFHV | 0.559 ± 0.047 | 0.6474 ± 0.0042 | 0.458 ± 0.028 | 0.646 ± 0.044 | 0.2825 ± 0.0003 | 0.303 ± 0.0068 | 0.522 ± 0.0089 | 0.384 ± 0.071
26 | PPTLLPPLHPAP | 0.681 ± 0.056 | 0.725 ± 0.0045 | 0.663 ± 0.011 | 0.7217 ± 0.005 | 0.666 ± 0.028 | 0.688 ± 0.038 | 0.731 ± 0.023 | 0.64 ± 0.23
27 | YNKIRNNEKKMT | 0.664 ± 0.084 | 0.696 ± 0.026 | 0.674 ± 0.073 | 0.7121 ± 0.0016 | 0.1897 ± 0.0018 | 0.27 ± 0.055 | 0.457 ± 0.043 | 0.36 ± 0.017
28 | TMSGVTRCVLVL | 0.521 ± 0.048 | 0.526 ± 0.04 | 0.385 ± 0.026 | 0.5463 ± 0.0053 | 0.339 ± 0.015 | 0.395 ± 0.02 | 0.5379 ± 0.0049 | 0.423 ± 0.015
29 | RVFGWIEVEVEG | 0.5179 ± 0.001 | 0.565 ± 0.019 | 0.403 ± 0.023 | 0.5679 ± 0.0026 | 0.346 ± 0.018 | 0.386 ± 0.054 | 0.584 ± 0.007 | 0.489 ± 0.079
30 | INKKKKMIITKI | 0.617 ± 0.11 | 0.726 ± 0.011 | 0.662 ± 0.073 | 0.742 ± 0.063 | 0.227 ± 0.0025 | 0.253 ± 0.043 | 0.479 ± 0.015 | 0.427 ± 0.019
